From patent US20220177587A1, “METHODS AND USES OF VARIANT CD80 FUSION PROTEINS AND RELATED CONSTRUCTS” (Alpine Immune Sciences, Inc., priority 2018, published 2022)
Numbering of substitutions follows the chain as printed. Names may count otherwise.

B1: T13R/Q33R/E35D/M47L/V68M (protein)
chain: VIHVTKEVKEVARLSCGHNVSVEELAQTRIYWRKDKKMVLTMMSGDLNIWPEYKNRTIFDITNNLSIMILALRPSDEGTYECVVLKYEKDAFKREHLAEVTLSVKADFPTPSISDFETPTSNIRRIICSTSGGFPEPHLSWLENGEELNAINTTVSQDPETELYAVSSKLDFNMTTNHSFMCLIKYGHLRVNQTFNWNTTKQEHFPDN
modifications: CD80 v381 ECD
B2: T13R/Q33R/E35D/M47L/V68M/L85M (protein)
chain: B1 chain with L85M
modifications: CD80 v382 ECD
B3: E24D/E35D/M47L/V68M/E95V/L97Q (protein, UniProt P33681 35-288, looked up, variant E24D E35D M47L V68M E95V L97Q)
T-lymphocyte activation …: VIHVTKEVKEVATLSCGHNVSVEDLAQTRIYWQKDKKMVLTMMSGDLNIWPEYKNRTIFDITNNLSIMILALRPSDEGTYECVVLKYEKDAFKRVHQAEVTLSVKADFPTPSISDFEIPTSNIRRIICSTSGGFPEPHLSWLENGEELNAINTTVSQDPETELYAVSSKLDFNMTTNHSFMCLIKYGHLRVNQTFNWNTTKQEHFPDNLLPSWAITLISVNGIFVICCLTYCFAPRCRERRRNERLRRESVRPV
B4: M47L (protein)
chain: VIHVTKEVKEVATLSCGHNVSVEELAQTRIYWQKEKKMVLTMMSGDLNIWPEYKNRTIFDITNNLSIVILALRPSDEGTYECVVLKYEKDAFKREHLAEVTLSVKAD
B5: D46V/M47L/L85Q (protein)
chain: B4 chain with D46V, L85Q
B6: E35D/D46V/M47L/V68M/L85Q (protein)
chain: B4 chain with E35D, D46V, V68M, L85Q
B7: D46V/V68M (protein)
chain: B4 chain with D46V, L47M, V68M
B8: K89N (protein)
chain: B4 chain with L47M, K89N
B9: D46V/M47L/V68M (protein)
chain: B4 chain with D46V, V68M
B10: E35D/D46V/M47L/L85Q (protein)
chain: B4 chain with E35D, D46V, L85Q
B11: E35D/V68M/L85Q (protein)
chain: B4 chain with E35D, L47M, V68M, L85Q
B12: D46V/L85Q (protein)
chain: B4 chain with D46V, L47M, L85Q
B13: E35D/M47L/V68M (protein)
chain: B4 chain with E35D, V68M
B14: M47V (protein)
chain: B4 chain with L47V

target: T1, CD28 (Homo sapiens, UniProt P10747); test: Flow binding to Jurkat/IL2 reporter cells (CD28); parameters: host or cells: Jurkat cells expressing an IL-2-luciferase reporter; settings: Table E11; 33.3 nM; listed as WT CD80 ECD-Fc = 1.0
In short: (§1)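 Fusion proteins bound to CHO cells stably expressing CTLA4 or PD-L1, or to Jurkat/IL2 reporter cells with endogenous CD28, for 45 min on ice after blocking in PBS/1% BSA. Detection with PE anti-human Fc by flow cytometry; PE MFI per cell type and binding EC50 determined.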

CD28 Fold change to WT CD80	Molecule
0.4	B1
3.6	B2
0.5	B3

same assay, conditions: Table E11; Jurkats (CD28); 33.3 nM

CD28 MFI at 33.3 nM	Molecule
14.1	B1
112	B2
15	B3

same assay, conditions: Table E19; Jurkats (CD28); 33.3 nM

CD28 MFI at 33.3 nM	Molecule
309	B4
567	B5
464	B6
556	B7
56.3	B8
2183	B9
268	B10
76.2	B11
131	B12
1243	B13
68.7	B14

same assay, conditions: Table E19; MFI at 33.3 nM relative to WT CD80 ECD-Fc (Abcam)

CD28 Fold change to WT CD80 [fold]	Molecule
0.4	B4
0.8	B5
0.7	B6
0.8	B7
0.1	B8
3.1	B9
0.4	B10
0.1	B11
0.2	B12
1.8	B13
0.1	B14

target: huPD-L1 (Homo sapiens, UniProt Q9NZQ7); test: Flow binding to CHO cells stably expressing PD-L1; parameters: huCTLA4 and huPD-L1, full-length mammalian surface expression constructs were generated; expressed in transfected cells; host or cells: CHO cells, lentiviral transduction, sorted to >98% purity; settings: Table E11; 33.3 nM; listed as WT CD80 ECD-Fc = 1.0
Sequence (Q9NZQ7 19-290): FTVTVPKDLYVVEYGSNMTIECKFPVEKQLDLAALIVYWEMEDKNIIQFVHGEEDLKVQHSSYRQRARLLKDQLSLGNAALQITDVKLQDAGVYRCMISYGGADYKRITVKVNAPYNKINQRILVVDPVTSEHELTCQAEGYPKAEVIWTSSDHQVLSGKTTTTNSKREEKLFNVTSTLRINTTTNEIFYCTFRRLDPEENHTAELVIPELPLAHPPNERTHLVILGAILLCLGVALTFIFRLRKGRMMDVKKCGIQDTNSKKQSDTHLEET
In short: as §1

PD-L1 Fold change to WT CD80	Molecule
285.0	B1
367.7	B2
362.1	B3

same assay, conditions: Table E11; CHO cells stably expressing PD-L1; 33.3 nM

PD-L1 MFI at 33.3 nM	Molecule
14680	B1
18938	B2
18649	B3

same assay, conditions: Table E11; MFI at 33.3 nM

Ratio of PDL1:CD28	Molecule
1041.1	B1
169.1	B2
1268.6	B3

same assay, conditions: Table E19; CHO cells stably expressing PD-L1; 33.3 nM

PD-L1 MFI at 33.3 nM	Molecule
1895	B4
5976	B5
28418	B6
2271	B7
52.8	B8
28020	B9
7523	B10
5971	B11
2197	B12
27896	B13
2317	B14

same assay, conditions: Table E19; MFI at 33.3 nM relative to WT CD80 ECD-Fc (Abcam)

PD-L1 Fold change to WT CD80 [fold]	Molecule
14.8	B4
46.7	B5
222.0	B6
17.7	B7
0.4	B8
218.9	B9
58.8	B10
46.6	B11
17.2	B12
217.9	B13
18.1	B14

same assay, conditions: Table E19; ratio of MFI at 33.3 nM

Ratio of PDL1:CD28	Molecule
6.1	B4
10.5	B5
61.2	B6
4.1	B7
0.9	B8
12.8	B9
28.1	B10
78.4	B11
16.8	B12
22.4	B13
33.7	B14

target: huCTLA4 (Homo sapiens, UniProt P16410); test: Flow binding to CHO cells stably expressing CTLA4; parameters: huCTLA4 and huPD-L1, full-length mammalian surface expression constructs were generated; expressed in transfected cells; host or cells: CHO cells, lentiviral transduction, sorted to >98% purity; settings: Table E11; 33.3 nM; listed as WT CD80 ECD-Fc = 1.0
Sequence (P16410 36-223): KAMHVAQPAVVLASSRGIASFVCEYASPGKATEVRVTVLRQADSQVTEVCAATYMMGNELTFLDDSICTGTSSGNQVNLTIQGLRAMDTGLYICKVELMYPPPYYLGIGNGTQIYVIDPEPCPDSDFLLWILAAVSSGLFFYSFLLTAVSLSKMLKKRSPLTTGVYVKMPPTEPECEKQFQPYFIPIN
In short: as §1

CTLA4 Fold change to WT CD80	Molecule
11.8	B1
7.7	B2
8.8	B3

same assay, conditions: Table E11; CHO cells stably expressing CTLA4; 33.3 nM

CTLA4 MFI at 33.3 nM	Molecule
20738	B1
13438	B2
15505	B3

same assay, conditions: Table E19; CHO cells stably expressing CTLA4; 33.3 nM

CTLA4 MFI at 33.3 nM	Molecule
30774	B4
40153	B5
26207	B6
5334	B7
944	B8
34688	B9
38150	B10
42761	B11
41896	B12
28603	B13
33341	B14

same assay, conditions: Table E19; MFI at 33.3 nM relative to WT CD80 ECD-Fc (Abcam)

CTLA4 Fold change to WT CD80 [fold]	Molecule
0.8	B4
1.0	B5
0.6	B6
0.1	B7
0.0	B8
0.9	B9
0.9	B10
1.1	B11
1.0	B12
0.7	B13
0.8	B14

target: T1, CD28; test: Jurkat/IL2 + CHO/OKT3 +/- PD-L1 reporter assay: PD-L1-dependent CD28 costimulation; assay type: cell-based; parameters: host or cells: Jurkat cells expressing an IL-2-luciferase reporter; settings: Table E13; Jurkat/IL2 + CHO/OKT3/PD-L1; 5.0 nM
In short: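 Jurkat reporter cells (100,000/well) preincubated 15 min at room temperature with test protein, then cocultured 5 h at 37 °C with CHO aAPCs bearing anti-CD3 scFv (OKT3) with or without PD-L1. Luciferase luminescence (RLU) read after lysis-substrate addition.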

Fold Increase over WT CD80-IgV-Fe	Relative Luciferase Units (RLU), CD80 Cone 5.0 nM [RLU]	Molecule
1.0	399	B1
2.9	1160	B2
2.7	1087	B3

same assay, conditions: Table E21; Jurkat/IL2 + CHO/OKT3/PD-L1; 5.0 nM

Fold Increase over WT CD80-IgV-Fe [fold]	Molecule
4.6	B4
5.2	B5
6.2	B6
2.5	B7
1.0	B8
6.3	B9
4.2	B10
4.4	B11
3.0	B12
6.5	B13
3.9	B14

same assay, conditions: Table E21; Jurkat/IL2 + CHO/OKT3/PD-L1; CD80 Conc 5.0 nM

Relative Luciferase Units (RLU), CD80 Conc 5.0 nM [RLU]	Molecule
530	B4
598	B5
712	B6
292	B7
116	B8
724	B9
481	B10
511	B11
342	B12
749	B13
445	B14
